Data published in the nanobody polyreactivity screen of Harvey et al. (2022).

Test: yeast display, Sf9 membrane polyspecificity reagent, FACS + sequencing; frameworks hold sequencing errors
In short: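 Synthetic nanobody libraries on Saccharomyces cerevisiae BJ5465 were galactose-induced for 36–48 hours, stained 1 hour at 4 °C with 10% biotinylated, detergent-solubilized Sf9 membrane reagent and enriched on streptavidin microbeads. FACS then separated cells into low and high (top ~1%) gates by anti-HA (expression) and streptavidin (reagent binding) fluorescence. Genes were colony-PCR amplified, MiSeq 2 × 250 sequenced and CDR-length filtered. A clone's polyreactivity label is that of its gate of origin.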

| Sequence | polyreactivity (PSR sort gate) |
| --- | --- |
| QVQLVESGGGLVQAGGSLRLSCASSGSTFWVNVMGWYRQAPGKERELVATITSGGRTNYADSVKGRFTISRDNAKNTVYLQMNCLKPEDTAVYYCAADLKRGYLMDYWGQGTQVTVSS | low polyreactivity |
| QVQLVESGGGLVQAGGSLRLSCASSGTFFGYAMGWYRQAPGKERELVAAITSGGSTYYADSVKGRFTISRDNAKNTVYLQMNSLKPEDTAGYYCARVYSRWSYRYDYWGQGTQVTVST | low polyreactivity |
| QVQLVESGGGLVQAGGSLRLSCASSGTFRLYAMGWYRQAPGKEREFVAAITSGGRTYADSVKGRFTISRDNAKNTVYLQMNSLKPEDTAVYYCAADAGRILFSGYDYWGQGTQVTVSS | low polyreactivity |
| QVQLVESGGGLVQAGGSLRLSCASSGYTIPLYAMVWYRQAPGKERELVADINIGGASTYYADSVKGRFTISRDNAKYTVYLQMNSLKPEDTAVYYCAKEYYDGYFTTFEYDYWGQGTQVTVSS | low polyreactivity |
| QVQLVESGGGLVQAGGSLRLSCATSGNIFWRYSIRWYRQAPGKEREFVAGISLRGSSTYYADSVKGRFTISRDNAKNTVYLEMNSLKPEDTAVYYCAVRQPRGSTVFYGGNYWGQGTQVTVSS | low polyreactivity |
| QVQLVESGGGLVQAGGSLRLSCATSGRIFHRYAMGWYRQAPGKERELVAGISSSGGSTYADSVKGRFTISRDNAKNTVYLQMNSLKPEDTAVYYCAKYFTDVSRHTYDYWGQGTQVTVSS | high polyreactivity |
| QVQLVESGGGLVQAGGSLRLSCATSGSIFVFNAMGWYRQAPGKERELVAAIDTSDDITYYADSVKGRFTISRDNAKNTVYLQMNSLKPEDTAVYYCNAETYGLVPYYIYHYEFDYWGQGTQVTVSS | high polyreactivity |
| QVQLVESGGGLVQAGGSLRLSCAVSGGILYEYAMGSDREAPGKERELVAAITTSGSTYYADSVKGRFTISRDNAKNTVDLLMNSLKPEDTAVYYCAADSDYFYYDLDYWGQGTQVTVSS | low polyreactivity |
| QVQLVESGGGLVQAGGSLRLSCAVSGRTFYYYAMGWYRQAPGKERELVAAISSSGGSTYYADSVKGRFTISRDNAMNTVYLQLNRLKPEDTAVYYCNAYTTRSYGFDYWGQGTQVTVSS | high polyreactivity |
| QVQLVESGGGLVQAGGSLRLSCAYSGRTICSNAMGWYRQAPGKESELVARIDSTYYADSVKGRFTISRDNAKNTVYLQMNSLKPEDTAVYYCAADAWDHWTWFYPTNGMDYWGQGTQVNVSS | low polyreactivity |
| QVQLVESGGGLVQAGGSLRLSCDASALTIITNAMGWYRQAPGKERELVAAISGTGGSTYYADSVKGRFTISRDNAKYTVYLQMNSLKPEDTAVYYCAAAPYTFWVGDSWGQGTQVTVSS | high polyreactivity |
| QVQLVESGGGLVQAGGSLRLSCDASARTFWRNAMGWYRQAPGKERELVAAISYSGGSTYYADSVKGRFTISRDYAKNTVYLQMNSLKPEDTAVYYCAVVYSTSSLYSGYYWGQGTQVTVSS | low polyreactivity |
| QVQLVESGGGLVQAGGSLRLSCDASGFIFNYYVMGWYRQAPGKERELVAAISRSGGSTYYADSVKGRFTISRDNAKNTVYLQKNSLKTEDTAVYYCAAEYGYGKRAYDSWGQGTQVTVSS | high polyreactivity |
| QVQLVESGGGLVQAGGSLRLSCDASGFIFVVYALGWYRQAPGKERDLVAAITNGGITYYADSVKGRFTISRDNAKNTVYLQMNSLKPEDTAVYYCNAQYTVYDGYVCYYYWGQGTQVTVSS | low polyreactivity |
| QVQLVESGGGLVQAGGSLRLSCDASGFTFVSYAMGSYRQAPGKERELVAVISYRAGSTYYADSVKGRFTISRDNAKNTVYLPMYSLKPEDTAVYYCATDRYSRRNDYWGQGTQVTVSS | high polyreactivity |
| QVQLVESGGGLVQAGGSLRLSCDASGFTLEKNAMGWYRQAPGKERELVADISSTDSTNYADSVKGRFTISRDNAKNTVYIQMNSLKPEDTAVYYCGRYDGPGTEEFDYWGQGTQVTVSS | low polyreactivity |
| QVQLVESGGGLVQAGGSLRLSCDASGIFVGYTLGWYRQAPRKERELVAAIRWTDGSTYYADSVKGRFTISRDNAKNTVYLQRNSLNPEDTAVYDCGADSNDPARYYYGDEFEDEYWGQGTQVTVSS | low polyreactivity |
| QVQLVESGGGLVQAGGSLRLSCDASGIIFGFNTMGWYRQAPVKERELVAAINGSDGSTYADSVKGRFTISRDNAKNTVYLQMISVKPEDTAVYYCAKALDYRYRRYDYWGQGTQVTVSS | low polyreactivity |
| QVQLVESGGGLVQAGGSLRLSCDASGIIFVKYAMGWYRQAPGKERELVAAITSGGSTYYADSVKGRFTISRDNAKNTVYLQMNSLKPEDTAVYYCNADTWFLYFFTINGYWGQGTQVTVSS | high polyreactivity |
| QVQLVESGGGLVQAGGSLRLSCDASGITFWGYVMGWYRQAPGKERELVAAISSSGGRTYYADSVKGRFTISLDNAKNTVYLQMNSLKPEDTAVYYCAARFLYANRYSVDYDYCGQGTQVTVSS | high polyreactivity |
| QVQLVESGGGLVQAGGSLRLSCDASGITFWNALGWYRQAPGKERELVAAITSSGGSTYYADSVKGRFTISRDNAKNTVDLQMNSLKPEDTAVYYCAADYGRTRYDMDYWGQGTQVTVSS | low polyreactivity |
| QVQLVESGGGLVQAGGSLRLSCDASGITITEYARGWYRQAPGTERELVAVISSVGTMYYADSVKGRFTISRDNEKNTVYLQMKSLKPEDTAVYYCAADYTDDGEYPYWSGSDYWGQGTQVTVSS | low polyreactivity |

| Sequence | polyreactivity (PSR sort gate) |
| --- | --- |
| QVQLVESGGGLVQAGGSLRLSCDASGLTFAYYAMGWYRQAPGKERELVAAISSSGGRTYYADSVKGRFTISRDNAKNTVYLQMNSLKPEDTAVYYCAKSRYSTQTDYNYWGQGTQVTVSS | high polyreactivity |
| QVQLVESGGGLVQAGGSLRLSCDASGLTFDYNAMGWYRQAPGKERELVAAITWSGGSTYYADSVKGRFTISRDNAKNTVYLQMNSLKPEDTAVYYCARDGVGRGYGYFTPLGYDYWGQGTQVTVSS | low polyreactivity |
| QVQLVESGGGLVQAGGSLRLSCDASGLTFGWNAMGWSRQAPGKERELVAALSYNGVSTHYADTVKGRFTISRDNAKNTVYLQMNSLKPEDTAVYYCAARALTWPYGGTAPRLYNYWGQGTQVTVSS | low polyreactivity |
| QVQLVESGGGLVQAGGSLRLSCDASGLTFHRYAMGWYRQAPGKERELVAAINYSGGRTYYADSVKGRFTISRDNAKNTFYLQMNSLKPEDTAVYYCAAPRASGYFWGQGTQLTVSS | high polyreactivity |
| QVQLVESGGGLVQAGGSLRLSCDASGRIFGSYAMGWYRQAPGKERELVAAITYSGGRTYYADSVKGRFTISRDNAKNTVYLQMNSLKPEDTAVYYCNALGRLTSQYDYWGQGTQVTVSS | high polyreactivity |
| QVQLVESGGGLVQAGGSLRLSCDASGRIFRKYAMGWYRQAPGKERELVAGITWRGTSTYYADSVKGRFTISRDNAKNTVYLPMNSLKPEDTAVYYCAAEWKGYYVHDYWGQGTQVTVSS | high polyreactivity |
| QVQLVESGGGLVQAGGSLRLSCDASGRIFSYYAMGWYRPAPGKERELVAAITRSGGNTYYADSVKGRFTISRDNAKNTVYLLMNSLKPEDTAVYYCAARLGRPFYGPNRYDYWGQGTQVTVSS | high polyreactivity |
| QVQLVESGGGLVQAGGSLRLSCDASGRIFTTYAMGWYRQAPGKERELVARITWSAGRTYYADSVKGRFTISRDNAKNTVYLQMNSLKPEDTAVYYCAADGGISAGANSGYDYWGQGTQVTVSS | high polyreactivity |
| QVQLVESGGGLVQAGGSLRLSCDASGRIFVYYAMGWYRQAPGKERELVAAINSGGTTKYADSVKGRFTISRDNAKNTVYLQMNSLKPEDTAVYYCAAEPLTPSRDRVPYEYYYWGQGTQVTVSS | high polyreactivity |
| QVQLVESGGGLVQAGGSLRLSCDASGRIFYANAMGWYRQAPGKERELVAGISSGGITNYADSVKGRFTISRDNAKNTVYLQMNSLKPEDTAVYYCAARRWSTGGYGQFDYWGQGTQVTVSS | low polyreactivity |
| QVQLVESGGGLVQAGGSLRLSCDASGRILTSNAMGWYRQPPGKERELVAAISWSGGSTYYADSVKGRFTISRDNAKNTVYLQMNSLKPEDTAVYYCAAPFTTTFDYWGQGTQVTVSS | low polyreactivity |
| QVQLVESGGGLVQAGGSLRLSCDASGRISGSYVMGWYRQAPRKERELVAGISGRGGSTYYADSVKGRFTISRDNAKNTVDLQMNSLKPEDTAVYYCAVVDRTSKGNSYYWGQGTQVTVSS | high polyreactivity |
| QVQLVESGGGLVQAGGSLRLSCDASGRTFGRNAMGWYRQAPGERELGAVISRGGSTYYADSVKGRFTISRDNAKNTVYLQRNSLKPEDTAVYYCNADTVYTRTAPYDYWGQGTQVTVSS | low polyreactivity |
| QVQLVESGGGLVQAGGSLRLSCDASGRTFPDYAIGWYIQAPGKESELVAAISGSGGSTYYADSVKGRFTISRDNAKNTVYLQMNSLKPEDTAVYYCAAEAETLLWYWFPSAVDYWGQGTQVTVSS | high polyreactivity |
| QVQLVESGGGLVQAGGSLRLSCDASGRTFQYYAMGWYRQAPGKVRELVAGISSCGGSTYYADSVKGRFTISRDNAKNTVDLQMNSLKPEDTAVYYCNKARYFTGQRYDYWGQGTQVTVSS | high polyreactivity |
| QVQLVESGGGLVQAGGSLRLSCDASGRTFSSNAMGWYRQAHGKERELVAAISFRGGRTFYADSVKGRFTISRDNAKNTVYLQMNSLKPEDTAVYYCNAVPETRTYDYWGQGTQVTVSS | high polyreactivity |
| QVQLVESGGGLVQAGGSLRLSCDASGSIFAPNSMGWYRQAPGKERELVAAITSSGCRTYYADSVKGRFTISRDNAMNTFYLQMNSLKPVDSAVYYWIAGFYVRRDYDYWGQGTQVTVSS | low polyreactivity |
| QVQLVESGGGLVQAGGSLRLSCDASGSIFILYAMGWYRQAPGKERELVAGITLSTGTTSYADSVKGRFTISRDNAKNTVYLQMNSLKPVDTAVYYCNAVPSQHDEFDYWGQGTQVTVSS | low polyreactivity |
| QVQLVESGGGLVQAGGSLRLSCDASGSIFPHNAMGWYRQAPGKERELVAAISVSGGSKYYADSVKGRFTISRDNAKNTVYLQMNSLKPEDTAVYYCAAYAYGGRINGYRTYRYNYWGQGTQVTVSS | high polyreactivity |
| QVQLVESGGGLVQAGGSLRLSCDASGSIFPYNAMGWFRQAPGKEWELVAAISKRGGSTYYADSVKGRFTISRDNAKNTVYLQMNSLKPEDSAVYYCAARYPPYRSWYSYDSWGQGTQVTVSS | low polyreactivity |
| QVQLVESGGGLVQAGGSLRLSCDASGSIFSIYAMGWYRQAPGKERELVAAISSGGSTYYADSVKGRFTISRDNAKNTVYLQMNSLKPEDTAVYYCAADAAYYSGYDYWGQGTQVTVSS | low polyreactivity |
